Reference: paper PMC9464890, “Exosite binding modulates the specificity of the immunomodulatory enzyme ScpA, a C5a inactivating bacterial protease” (Computational and Structural Biotechnology Journal, 2022)
Where a chain is given by its changes, count along the chain named.

How the values were obtained:
ScpA_(S512A) = biological target: T1, ScpA_(S512A) (Streptococcus pyogenes, UniProt P15926 31-1032, S512A); assay: SPR; BIAcore X100, NTA sensor chip with about 20-25 RU of immobilised His-tagged C5a form (ligand), ScpA form flowed as ligate at 30 uL/min, 25 °C, 10 mM Hepes-KOH pH 7.4, 150 mM NaCl, 0.005% Tween 20, 50 uM EDTA; global fit, 1:1 Langmuir model with drifting baseline; triplicate; details: both partners purified
T1 construct: Plasmid pGEX ScpA(31-1032) was the template; also called C5a peptidase from Streptococcus pyogenes, active site serine to alanine mutant; source: details in Supplemental Information SI1 and SI2
T1 sequence (looked up): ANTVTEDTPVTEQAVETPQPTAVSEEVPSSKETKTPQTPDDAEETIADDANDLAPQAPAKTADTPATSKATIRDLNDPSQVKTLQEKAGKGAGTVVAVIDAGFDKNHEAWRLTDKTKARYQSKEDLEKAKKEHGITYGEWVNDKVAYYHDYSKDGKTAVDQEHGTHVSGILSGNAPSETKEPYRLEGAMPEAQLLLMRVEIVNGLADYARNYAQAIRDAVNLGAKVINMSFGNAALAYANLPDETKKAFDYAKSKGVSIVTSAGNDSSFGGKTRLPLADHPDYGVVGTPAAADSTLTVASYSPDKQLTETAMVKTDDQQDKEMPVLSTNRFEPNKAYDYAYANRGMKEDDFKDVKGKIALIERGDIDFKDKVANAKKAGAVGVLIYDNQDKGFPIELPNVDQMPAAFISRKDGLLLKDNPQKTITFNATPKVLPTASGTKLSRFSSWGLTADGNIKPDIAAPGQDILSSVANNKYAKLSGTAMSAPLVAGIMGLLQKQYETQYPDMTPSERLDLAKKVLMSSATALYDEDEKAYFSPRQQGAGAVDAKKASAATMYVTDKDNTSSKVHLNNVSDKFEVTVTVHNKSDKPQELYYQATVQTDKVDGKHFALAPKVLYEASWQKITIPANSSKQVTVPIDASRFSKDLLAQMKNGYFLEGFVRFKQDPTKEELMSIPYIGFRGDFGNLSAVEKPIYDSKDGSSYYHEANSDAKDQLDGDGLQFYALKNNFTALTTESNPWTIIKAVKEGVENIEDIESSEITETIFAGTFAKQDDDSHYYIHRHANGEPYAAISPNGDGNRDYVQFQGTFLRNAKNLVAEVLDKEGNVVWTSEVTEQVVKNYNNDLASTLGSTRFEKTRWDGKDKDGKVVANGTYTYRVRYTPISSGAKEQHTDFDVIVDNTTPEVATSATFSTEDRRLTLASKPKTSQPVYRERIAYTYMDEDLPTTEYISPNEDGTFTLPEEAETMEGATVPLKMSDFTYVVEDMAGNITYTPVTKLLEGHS

ScpA_(S512A,D889A) = biological target: T2, ScpA_(S512A,D889A) (Streptococcus pyogenes, UniProt P15926 31-1032, S512A | D889A); assay: as above; details: both partners purified
T2 construct: Made by QuikChange II from pGEX ScpA(31-1032); also called D889A_(S512A); source: details in Supplemental Information SI1 and SI2
T2 sequence (looked up): T1 sequence (looked up) with D859A

B1: Recombinant human C5a (rhC5a) (natural protein, UniProt P01031 678-751, looked up)
chain: TLQKKIEEIAAKYKHSVVKKCCYDGACVNNDETCEQRAARISLGPRCIKAFTECCVVASQLRANISHKDMQLGR
notes: human complement C5a anaphylatoxin, residues 1-74 (core 1-67 and tail 68-74); also called full length rhC5a; substrate; not shown: His6, N-terminal, kept
- Kd (ScpA_(S512A)): 34 nM
- koff (ScpA_(S512A)): 0.007 s⁻¹
- kon (ScpA_(S512A)): 209000 M⁻¹ s⁻¹
- Kd (ScpA_(S512A,D889A)): 27 nM
- koff (ScpA_(S512A,D889A)): 0.007 s⁻¹
- kon (ScpA_(S512A,D889A)): 263000 M⁻¹ s⁻¹
